Measured values reported in paper PMC4902875 (ACS chemical biology, 2016).

Molecular target: the molecule itself
Test: crystal structure

B1: BexE (enzyme, Amycolotopsis orientalis sp. vinerea, UniProt D7RFJ3 1-487, looked up)
chain: MDAPVVIAGAGPAGLMLAGELRLAGIGVVVLERLPARTGESRGLGFTARTMEVFDQRGLLRRFGEVQTSDQGHFGGIPVDFGLLDGAHQAAKTIPQSATEAVLEAWAGELGADIRRGHELTGVRDDGDGVAVTVRGPAGEHVLRAGWLVGCDGGRSAVRKAVGFDFPGTAATREMFLADLRGVELEPRMIGESLPGGMVMVGPLPGGVTRIIVCERDAPPRRRTGPPPFHEVADAWKRITGIDISAAEPVWLSAFGDATRQVTEYRRGRVLLAGDAAHVHLPAGGQGMNAGIQDAVNLGWKLAAVVRGTARADLLDTYHGERHPVGVRLLMNTRAQGLLFLNGAEMQPLRDVLAELTGYPDVARHLAAMVSGLEIAYDVGGGSHPWLGRRLPRLELDRGGRPSSTAELLRPARGLLLDFAGNAALRDRAAPWAGRIDVVTARPAAGRVPGATTAVLVRPDGHVAWAAPGTHADLPMALERWFGPAPR
Does B1 bind?
Result: binds
